The text below walks through data of PMC4820223.

In assay [1] the target is UbL-mCherry-FRB-MBP proteasome adaptor.
Assay [2] addresses UbL-mCherry-GAI(1-92) proteasome adaptor (UniProt Q9LQT8).

Substance FKBP-GFP-tail target protein gave a depletion of the GFP target (GFP fluorescence by flow cytometry) in HEK293 cells after 4 h with 1, 2 or 5 uM rapalog; dimerisation bridged by rapalog in assay [1] of 90%.
Consider GID1-GFP-tail target protein, for which the depletion of the GFP target (GFP fluorescence by flow cytometry) in HEK293 cells after 24 h with 10 to 50 uM and higher GA3-AM; dimerisation bridged by gibberellin GA3 in assay [2] was 80%.
